Experimental data taken from the nanobody polyreactivity screen of Harvey et al. (2022).

Assay: yeast display, Sf9 membrane polyspecificity reagent, FACS + sequencing; frameworks hold sequencing errors
How it was run: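 Sorting gates, low and high (top ~1%), were placed on anti-HA fluorescence to track expression and on streptavidin fluorescence to track reagent binding. A clone's polyreactivity label is taken from the gate it came out of. The reagent was 10% biotinylated, detergent-solubilized Sf9 membrane, applied for 1 hour at 4 °C to galactose-induced yeast display cells.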

Sequence | polyreactivity (PSR sort gate)
QVQLVESGGGLVQAGGSLRLSCAASGRTFGANTMGWYRPAPGKERELVAAITWSGDSTYYADSVKGRFTISRDNAKNTVYLQMNSLKPEDTAVYYCAARLWRQYYYWGQGTQVTVSS | high polyreactivity
QVQLVESGGGLVQAGGSLRLSCAASGRIRFNVMGWYRQAPGKERELVAAITGGGTTYYADSVKGRFTISRDNAKNTVYLQMNSLKPEDTAVYYCAARALYSRINQIPSYYWGQGTQVTVSS | high polyreactivity
QVQLVESGGGLVQAGGSLRLSCAASGSTIYVKAMGWYRQAPGKEREFVAAITWNSGSTYYADSVKGRFTISRDNAKKTVYLQINSLKPEDTAVYYCAAVLSVLVYGYVYWGQGTQVTVSS | low polyreactivity
QVQLVESGGGLVQAGGSLRLSCAASGRILEGYAMGWYRQAPGKEELVAAITSDASTYYADSVKGRFTMSRDNAKNTVYLQINSLKPEDTAVYYCAADTYDNDYYYWGQGTLVTVSS | high polyreactivity
QVQLVESAGGLVQAGGSLRLSCAASGFIFHRYAMGWYRQAPGKERELVAAITGRGSSTYYADSVKGRFTISRDNAKNTVYLQMNSLKPEDTAVYYCNAYRYQVYDTGWFGYWGQGTQVTVSS | high polyreactivity
QVQLVESGGGLVQAGGSLRLSCAASGSTYRLYTMGWYRQAPGKERELVAAITSGGSTNYADSVKGRFTISRDNAKNTVYLQMYSLKPEDTAVYYCAKAKRFPSFDYWGQGTQVTVSS | low polyreactivity
QVQLVESGGGLVHAGGSLRLSCAASGRIFERYAMGWYRQAPGKERELVAAISVSGSGTYYADSVKGRFTISRDNAKNTVYLQMNSLKPEDTAVYYCAADASLLGLFQGYDYWGQGTQVTVSS | low polyreactivity
QVQLEESGGSIVQAGGSLRLSCAASGYTFLGNAMGWYRKAPGKERELVAAISSGGTTFYADSVMGRFTISRDNAKNTVYLQMNSLNPEDTAVYYCAAKDTTVFYYDDDYWGQGTQVTVSS | low polyreactivity
QVQLVESGGGLVQAGRSLRLSCAASGRIFSTNAMGRYRQAPGKERELVAAITRSSSTYYAYSVKGRFTISLDNAKNTVYLQINSLKPEDTAGYYCAASRFQYKSTQFYYWGQATQVTVSS | high polyreactivity
QVQLVESGGGLVQAGGGLRLSCAASGRIFSRNVMGWYRQAPGKERELVAAISASGGSTYYADSVKGRFTISRDNAKNTVYLQMNSLKPEDTAVYYCAARRYPGRTATYYSWGQGTQVTVSS | high polyreactivity
QVQLVESGGGLVQAGGGLRLSCAASGRTFTYNAMGWYRQAPGKERELVAAITYDGGGTYADSVKGRFTISRDNAKNTVYLQMNSMKPEDSAVYYCNKGPDPGSFYDYWGQGTQVTVSS | low polyreactivity
QVQLVESGGGLVQAGGSLRLSCAASGRTFWANAMGWYRQAPGKERELVAAITIDGRTSYADSVKGRFTISRDNAKNTVYLQMNSLKPEDTAVYYCATEPFYTYGYYTYPYWYDYWGQGTQVTVSS | low polyreactivity
QVQLVESGGGLVQAGGSLRLSCAASGGTFFQYAMGWYRQAPGKERELVAAITWSSGSTYYADSVKGRFTISRDNAKNTVYLQMNSLKPEDTAVYYDDYYTYGDYWGQGTQVTVSS | low polyreactivity
QVHLVESGGGLVQAGGSLRLSCAASGSIFVYNSMGWYRQAPGKEMELVAGITFIGGSTYYADSVKGRFTISRDNAKNTVYLQKNSLKPEDTAVYYCNADVAPGIFYGYDSWGQGTQVTVSS | low polyreactivity
QVQLVESGGGLVQPGGSLRLSCAASGRIFYYYAMGWYRQAPGKERELVAAITWNGTSTYYADSVKGRFTISRDNAKNTVYLQMNSLKPEDTAVYYCAKSLRAYRHVIYGKPFYSWGQGTQVTVSS | low polyreactivity
QVQLVESGGGLVQAGGSLRLSCAASGLTFRHYAMGWYRQAPGKERELVAAITSSGGSTYYADSVKGRFTISRDNAKNTVYIQMNSLKPEDTAVYYCNARWSYFHAVSGVASDYWGQGTQVTVSS | high polyreactivity
QVQLVESGGGLVQAGGSVRLSCAASGLTFQRYAMGGYRQAPGKERELVASITGNGGSTYYADSVKGRFSISRDNAKNTVYLQMNSLKPEDTAVYYCNARRYVRTCQQPLYDYWGQGTQVTVSS | high polyreactivity
QVQLVESGGGLVQAGGSLRLSCAASGLTLRENAMGWYRQAPGKERELVAAITNGGSTYYADSVKGRFTISRDNAKNTVYLQMNSLKPEDTAVYYCAADNLTYVISWDSDYWGQGTQVTVSS | low polyreactivity
QVQLVESSGGLVQAGGSLRLSCAASGSIFLYNAMGWYRKAPGTEREMVAAISKSGGSTYYADSVKGRFTISRDNAKYTVYLQMNSLKPEDTAVYYCAAGYGRRIRYGCEYDYWGQGTQVTVSS | low polyreactivity
QVQLVESGGGLVQAGGSLRLICAASGRIFLYYAMGWYRQAPGKERELVADINSGGNTTYADSVKGRFTISRDNAKNTVYLQMNSLKPEDTAVYYCAADPVFDLWEFVLDYGYDYWGQGTQVTVSS | low polyreactivity
QVQLVETGGGLVQAGGSLRLSCAASGRIFVGYAKGWYRQAPGKERELVAAISARGGSTYYADSVKGRFTISRDNAKNTVYLQMNSLKPEDTAVYYCAADEASSRGYYDYDYWGQGTQVTVSS | low polyreactivity
QVQLVESGRGLVQAGGSLRLSCAASGGTFRTYAMAWYRQAPGKERELVAAISVSGGRTYYADSVKGRFTISRDNAKNTVYLQMNSLKPEDTAVYYCAAYWHGFFKYWEMGYWGQGTQVTVSS | high polyreactivity

Sequence | polyreactivity (PSR sort gate)
QDQLVESGGGLFQAGGSLSLSCAASGNTFYWNAMGWYRQATGKEREFVAAISTTGVSTYYADSVKGRFTISRDNSKNTVYLQMNSLKPEDTAVYYCASEIIGYHTIYDYWGQGTQVTVSS | low polyreactivity
QVQLVESGGGLFQAGGSLRLSCDASGRNFSGNAMGMYRQAPGKERELVAAITWSGSSTFYADSVKGLFTISRDYAKNTVYFQMNSLKPEDTAVYYCAVDSSSPVRPHSDEDYWGQGTQVTVSS | low polyreactivity
QVQLEESGRGLVQAGGSLRLSCAASGNTLGYNAMGWYRQAPGKVRELVATFRGSGGITYYADSVKGRFTISRDNALNTVYLQMNSLKPEDTAVYYCANVYKSRVKGDHWGQGTQVTVSS | low polyreactivity
QVQLVESGGGLVQAGGSLRLSCAASGSIFVGNAMGWYRQAPGKERELVAAINSGGSTNYADSVKGRFTISRDNAKNTVYLQMNSLKTEDTAVYYCAADDDYCRILQGDQSDDYWGQGTQVTVSS | low polyreactivity
QVQLVESGGCLVQAGGSLRLSCAASGRTFSYYAMGWYRQAPGKERELVAAIDWSGSRTYYADSVKGRFTISRDNAKNTVYLQMNSLKPEDTAVYYCIADRTRGYQRYDYWGQGTQVTVSS | high polyreactivity
QVQLVESGGGLVQAGGSLRLSCAASGSTFWYYAMGWSRQAPGKERELVAAIRWSDGSTYYADSVKGRFTISRDNAKNTVYLQMNSLKPEDTAVYYCEYYYWGLGTQVTVSS | low polyreactivity
QVQLVESGGGLVQAGGSLRLTCAASGNIYLYYAMGWYRQAPGKERELVADIDSSGASTYYADSVKGRFTSSRDNAKNTVYLQMNSLKAEDTAVYYCAAEFHWWYAGYDYGYWGQGTQVTVSS | low polyreactivity
QDQLVESGGGLVQAGGSLRLSCAASGRTFVKYAMGWYRQAPGKERELVAAISRRGGSTYYADSVKGRFTISRDNAKNTVYLQMNSLKPEDTAVYYCAVSIGRYPYRYGYWGQGTQVTVSS | high polyreactivity
QVQLVESGGGLVQAGGSLRLSFAASGYTFAGNAMGWYRQAPGKERELVAVITYSGVSTYYADSVKGRFTISRDNAKNTVYLQMNSLKPEDTAVYYCNAVRERYASDYWGQGTQVTVSS | low polyreactivity
QVQLVESRGGLVQAGGSLRLSCAASGRIFDVYAMVWYRQAPGKERELVAAITWSGTSTYYADSVKGRFTISRDNAKNTVYVQMNSLKPEDTAVYYCAAEVAYTDTEYFWYYYWGQGTQVTVSS | high polyreactivity
QVQLEESGGGLVQAGGSLRLTCAGSGSISYRYDMGWYRQATGKEMELVAVITGSGGSTYYADSVKGRFTISRDNAKNTVYLQMNSLKPEDTAVYYCANEPGENWTVSWRDFDFWGQGTQVTVSS | low polyreactivity
QVQLVESGGGLVQAGGSLRLSCAASGFTFYYYAMGWSRQAPGKERELVAAISSAGGRTYYADSVKGRFTISRDNAKNTVYLQMNSLKPEDTAVYYCAATIKAYPTPLLGDYWGQGTQVTVSS | high polyreactivity
QVQLVESGGGLVQAGGSLRLSCAASGSTFTINAKGWYRQAPGKERELVAAISWSGGTTYYADSVKGRFTISRDNAKNTVYLQMTSLKPEDTAVYYCAARSYYGYDYWGQGTQVTVSS | high polyreactivity
QVQLVESGGGLVQAGGSLRLSCAASGIIFGYYAMGWYRQAPGKERELVAGITYRTGSTYYADSVKGRFTISRDNAKNTVYLQMNFLKPEDTAVYYCAATQYKRKYSSWYYYWGQGTQVTVSS | high polyreactivity
QVQLVESGGGLFQAGGSLRISCAASGSTFRGYVMGWYRQAPGKERELVAAISRSGTSTYYADSVKGRFTISRDNAKNTVYLQMNSLKPEDTAVYYCAAQLYGHGEDYWGQGTQVTVSS | high polyreactivity
QVQLVESGGGLVQAGGSLRLSCAASGSTFHYYAMGWYRQAPGKERELVAAISSSGVSTYYADSVKGRFTISRDNAKNTVYLQMNSLKPEDTAVYYCNRASVFHYRWYYYWGQGTQVTVSS | high polyreactivity
QVQLVESGGGLDHAGGSLRLSCAASGITFKRYAMGWYRQAPGKERELVAAISDIGGRTYYADSVKGRFTISRDNAKNTVYLQMNSLKPEDTAVYYCAADYYSPVDWYYYWGQGTQVTVSS | high polyreactivity
QVQLVESGGGLVQAGGSLRLSCAASGITLTKYGMGWYRQAPGKERELVAAISGSGGSTYYADSVKGRFTISRDNAKNTVYLQMNSLKPEDTAVYYCAARALYPRYYYWGQGTQVTVSS | high polyreactivity
QVQLVESGGGLVQAGGSLRLSCAASGSLLADNAMGWSRQAPGKERELVAAISRRGGRTYYADSVKGRFTISRDNAKNTVYLQMNSLKPEDTAVYYCAAVGSFHIVDYWGQGTQVTVSS | high polyreactivity
QVQLVESGGGLVQAGGSLRLSCAASGSIFDRNAMGWYRQAPGKERELVAAISFSGGSTYYADSVKGRFTISRDNAKNTVYLQMNSLKPEDTAVYYCAKAGRYANLPYVYWGQGTQVTVSS | high polyreactivity
QVQLQESGSGLVQAGGSLRLSCAASGYISLGDNMGWYRQAPGKDREFGATISVGGITYYVDSVKGRFTISRDIAKNTVYLQMNSLTPEDTAVYYCAALEIYYFRYYYWGQGTQVTVSS | low polyreactivity
